Sequences and labels used below:
T1: recombinant HMG1 produced in E. coli as calmodulin binding protein (CBP) fusion (human)
T1 chain: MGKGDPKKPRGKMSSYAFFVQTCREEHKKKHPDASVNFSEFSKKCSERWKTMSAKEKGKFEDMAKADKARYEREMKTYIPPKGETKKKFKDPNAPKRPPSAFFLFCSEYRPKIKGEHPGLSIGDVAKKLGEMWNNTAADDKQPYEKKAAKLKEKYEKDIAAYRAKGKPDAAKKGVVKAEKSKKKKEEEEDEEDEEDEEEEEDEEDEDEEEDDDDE

B1: anti-HMG1 antibody G20 (antibody, V domains shown)
VH: EVQLLESGGGLVQPGGSLRLSCAASGFTFSWYDMFWVRQAPGKGLEWVSWISPSGGYTKYADSVKGRFTISRDNSKNTLYLQMNSLRAEDTAMYYCARSGLDYYDSSGYLDAFDIWGQGTMVTVSS
VL: AQDIQMTQSPSSVSASVGDRVTITCRASQDVSIWLAWYQQKPGKAPKLLIFGASRLQSGVPSRFSGSRSGADFTLTIDSVQPEDFASYYCQQADSFPLTFGGGTKVEIK
B2: anti-HMG1 antibody G2 (antibody, V domains shown)
VH: EVQLLESGGGLVQPGGSLRLSCAASGFTFSWYKMQWVRQAPGKGLEWVSGISPSGGSTAYADSVKGRFTISRDNSKNTLYLQMNSLRAEDTAVYYCAKMGLFNTGNSYVDYWGQGTLVTVSS
VL: AQSELTQPPSVSEAPGQRVTISCSGSTSNIGNNAVIWYQQLPGKAPKLLIYYDDLLPSGVSDRFSGSKSGTSGSLAISGLQSEDEADYYCASWDDNLNGPLFGGGTKLTVL
B3: anti-HMG1 antibody S17 (antibody, V domains shown)
VH: EVQLLESGGGLVQPGGSLRLSCAASGFTFSYYDMHWVRQAPGKGLEWVSRISPSGGYTWYADSVKGRFTISRDNSKNTLYLQMNSLRAEDTAVYYCTRGRYTSGWHEYFDPWGQGTLVTVSS
VL: AQDIQMTQSPSSLSASVGDRVTITCRASQSIGTYLNWYQQKPGTAPKVLIYAASSLQSGVPSRFSGSGSGTDFTLTISSLQPEDFSTYYCQQSYNTPRTFGQGTKLEIK

In this test the target is T1, recombinant HMG1 produced in E. coli as …. The test can be described thus: BIAcore 3000; mAb amine-coupled to CM5, HMG1 injected in two-fold dilutions; steady-state model. To be noted: remark: other sources report otherwise. On the technique in general: Surface plasmon resonance follows binding to a sensor surface in real time, without labels.
A word on the Kd: it is the free concentration of one partner at which half of the binding sites on the other are occupied at equilibrium, for simple one-to-one binding. For the molecule B1, the Kd amounted to 114 nM.

Regarding B2, the Kd was determined as 101 nM.

B3: the Kd came to 331 nM.
